± gives the uncertainty stated by the source.

The text below walks through data of the supplement of paper PMC7877785.

A short description of this data set: self-splicing fitness, log relative to wild type (ln ratio); higher = more splicing; Tetrahymena group I intron in knt gene, E. coli kanamycin selection, DiMSum; sequences stand for … in CUCUCU…GGAGGGAAAAGUUAUCAGGCAUGCACCUGGUAGCUAGUCUUUAAACCAAUAGAUUGCAUCGGUUUAAAAGGCAAGACCGUCAAAUUGCGGGAAAGGGGUCAACAGCCGUUCAGUACCAAGUCUCAGGGGAAACUUUGAGAUGGCCUUGCAAAGGGUAUGGUAAUAAGCUGACGGACAUGGUCCUAACCACGCAGCCAAGUCCUAAGUCAACAGAUCUUCUGUUGAUAUGGAUGCAGUUCACAGACUAAAUGUCGGUCGGGGAAGAUGUAUUCUUCUCAUAAGAUAUAGUCGGACCUCUCCUUAAUGGGAGCUAGCGGAUGAAGUGAUGCAACACUGGAGCCGCUGGGAACUAAUUUGUAUGCGAAAGUAUAUUGAUUAGUUUUGGAGUACUCGUGGUCG
The method in brief:
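The eight P1ex-region nucleotides of an intron in the knt kanamycin-resistance gene on pET-22b(+) were all randomised and the library put into E. coli BL21(DE3). Six replicate transformations were grown overnight at 37°C or 30°C on LB agar with or without 25 μg/mL kanamycin, together with 100 μg/mL carbenicillin, 50 μM IPTG and 0.2% rhamnose. Colonies were pooled and amplicon-sequenced on an Illumina HiSeq 2500. Fitness from DiMSum is the error-weighted combination of wild-type-normalised replicate fold changes, kanamycin over none.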

Regarding UCCAAGCAAUAUUACGGAGA, the “self-splicing fitness (ln)” value (30 °C) is -0.684 ± 0.087 and the “self-splicing fitness (ln)” value (37 °C) is -0.415 ± 0.092.

Take CAACAGCAAUAUUACGAACG: the “self-splicing fitness (ln)” value stood at 0.0149 ± 0.065 (30 °C) and 0.73 ± 0.084 (37 °C).

Take GUCAAGCAAUAUUACGCAAC: the “self-splicing fitness (ln)” value is, setting by setting: (30 °C) -4.34 ± 0.26; (37 °C) -2.36 ± 0.34.

In the case of CUAAAGCAAUAUUACGUUUG, the “self-splicing fitness (ln)” value by setting is: (30 °C) -1.47 ± 0.075; (37 °C) -0.672 ± 0.092.

In the case of GGCAAGCAAUAUUACGCUGC, where the note is “30 °C”, the “self-splicing fitness (ln)” value is -3.37 ± 0.27.

As for GGGUAGCAAUAUUACGACCA, the “self-splicing fitness (ln)” value runs as follows: (30 °C) -0.444 ± 0.23; (37 °C) -0.732 ± 0.42.

On to UUCUAGCAAUAUUACGCCCU, for which the “self-splicing fitness (ln)” value (30 °C) was -2.51 ± 0.27 and the “self-splicing fitness (ln)” value (37 °C) is -0.693 ± 0.19.

Take CCAAAGCAAUAUUACGAACA: the “self-splicing fitness (ln)” value by setting is: (30 °C) -3.48 ± 0.22; (37 °C) -3.23 ± 0.28.

AAAUAGCAAUAUUACGUAAC: the “self-splicing fitness (ln)” value (30 °C) is -2.1 ± 0.2 and the “self-splicing fitness (ln)” value (37 °C) is -0.398 ± 0.2.

Turning to AGCGAGCAAUAUUACGGCAU, the “self-splicing fitness (ln)” value is, setting by setting: (30 °C) -1.45 ± 0.12; (37 °C) -0.286 ± 0.14.

Consider GUGUAGCAAUAUUACGAGUA, for which the “self-splicing fitness (ln)” value (37 °C) was -1.56 ± 0.19.

As for AGGAAGCAAUAUUACGGUAA, the “self-splicing fitness (ln)” value is, setting by setting: (30 °C) -2.47 ± 0.2; (37 °C) -2.26 ± 0.18.

On to CACGAGCAAUAUUACGGUUC, for which the “self-splicing fitness (ln)” value (37 °C) is -1.98 ± 0.34.

On to CAGUAGCAAUAUUACGGUCG, for which the “self-splicing fitness (ln)” value is -0.204 ± 0.093 (30 °C) and 0.084 ± 0.1 (37 °C).

As to CUCCAGCAAUAUUACGUCGU, the “self-splicing fitness (ln)” value reads like this: (30 °C) -3.07 ± 0.12; (37 °C) -2.72 ± 0.18.

For UAGUAGCAAUAUUACGUAGA, the “self-splicing fitness (ln)” value runs as follows: (30 °C) -3.53 ± 0.24; (37 °C) -1.93 ± 0.17.

As for ACACAGCAAUAUUACGUCAU, the “self-splicing fitness (ln)” value is -2.34 ± 0.072 (30 °C) and -2.33 ± 0.094 (37 °C).

Take GAAGAGCAAUAUUACGUGAG: the “self-splicing fitness (ln)” value reads like this: (30 °C) -2.97 ± 0.19; (37 °C) -1.11 ± 0.22.

Turning to UGUCAGCAAUAUUACGAUUC, the “self-splicing fitness (ln)” value reads like this: (30 °C) -1.84 ± 0.11; (37 °C) -0.335 ± 0.13.

On to UAUCAGCAAUAUUACGAUCU, for which the “self-splicing fitness (ln)” value is -0.554 ± 0.1 (30 °C) and -0.0299 ± 0.098 (37 °C).

Take AUGCAGCAAUAUUACGGACU: the “self-splicing fitness (ln)” value was -0.194 ± 0.073 (30 °C) and 0.429 ± 0.094 (37 °C).

As for UAUCAGCAAUAUUACGCACC, the “self-splicing fitness (ln)” value is -0.885 ± 0.22 (30 °C) and 0.3 ± 0.29 (37 °C).

AACAAGCAAUAUUACGCUCA: the “self-splicing fitness (ln)” value reads like this: (30 °C) -0.608 ± 0.054; (37 °C) -0.27 ± 0.071.

As for CACGAGCAAUAUUACGUGCG, the “self-splicing fitness (ln)” value reads like this: (30 °C) -3.73 ± 0.19; (37 °C) -2.09 ± 0.15.

In the case of GGCGAGCAAUAUUACGAAUG, the “self-splicing fitness (ln)” value is -3.21 ± 0.18 (30 °C) and -2.84 ± 0.2 (37 °C).

Turning to GAGAAGCAAUAUUACGGACC, the “self-splicing fitness (ln)” value is -0.43 ± 0.18 (30 °C) and 0.267 ± 0.19 (37 °C).

With UGCCAGCAAUAUUACGUUAA, the “self-splicing fitness (ln)” value by setting is: (30 °C) -2.48 ± 0.15; (37 °C) -0.729 ± 0.095.

With GAUGAGCAAUAUUACGCCUG, the “self-splicing fitness (ln)” value runs as follows: (30 °C) -1.57 ± 0.26; (37 °C) -2.53 ± 0.41.

In the case of CGUCAGCAAUAUUACGGUGA, the “self-splicing fitness (ln)” value reads like this: (30 °C) -2.52 ± 0.11; (37 °C) -2.81 ± 0.16.

CUGUAGCAAUAUUACGUUCG: the “self-splicing fitness (ln)” value is, setting by setting: (30 °C) -0.00257 ± 0.13; (37 °C) 0.798 ± 0.14.

For GUCGAGCAAUAUUACGAUGU, the “self-splicing fitness (ln)” value is -0.956 ± 0.059 (30 °C) and -0.601 ± 0.084 (37 °C).
